These results are taken from patent US11707511B2, “Vaccine compositions and methods of using the same” (The Board of Supervisors of Louisiana State University and …, priority 2017, dated 2023).

One assay deals with C. auris. Put plainly: Passive transfer of mAbs in cyclophosphamide-immunosuppressed B6.129X1Elane mice, disseminated infection by C. auris. The conditions noted are these: 2×108 C. auris i.v. In kind it is in vivo, Candida auris. Here is the method:
An immunocompromised murine model of disseminated infection by C. auris was developed. To induce immunosuppression, Jackson B6.129X1Elane mice received a 200 mg/kg dose of cyclophosphamide (CY) by i.p. on day −3. Prolonged immunosuppression was maintained for 30 days by giving each animal a 200 mg/kg dose of CY by i.p. every 10 days after infection. On day 0, mice of different experimental groups were intravenously infected with 2×10^8 viable C. auris yeast cells.
The preventive effect of peptide-specific mAbs, for example 7H6A2 and 1D4H5, and combinations thereof, for example 7H6A2+1D4H5, was examined by passive transfer experiments. Each mAb was appropriately diluted in DPBS to give a 40,000-100,000 ELISA titer against each corresponding specific peptide coated on the plate. For testing, mice received 0.5 ml of each mAb or 1 ml of two mAbs in combination (0.5 ml of each) intraperitoneally. Control mice received 0.5 ml of the DPBS diluents.
Protective mAbs protect immunocompromised mice against disseminated infection by Candida auris: The possibility of using passive mAb immunotherapy in immunocompromised mice against disseminated candidiasis by C. auris. The protective effect of mAb 7H6A2, 1D4H5 or these two mAbs in combination against the disease in immunocompromised mice was examined by passive transfer experiments (FIG. 14). Mice received either mAb 7H6A2 or 1D4H5 or the two mAbs in combination had reduced CFUs in kidneys (FIG. 14A) and in brains (FIG. 14B) as compared with control mice.

Another assay concerns C. glabrata ATCC 2001. Put plainly: Passive transfer of mAbs, neutropenic mouse model of disseminated candidiasis by C. glabrata. The assay is classed as in vivo. The conditions noted are these: for Protection against C. glabrata / Protection against C. glabrata (grade word): Table 6, neutropenic BALB/c mice, mAb i.p. 4 h before 1×10^8 C. glabrata i.v.; for Protection against Candida spp in mouse model: Against C. glabrata / Protection against Candida spp in mouse model: Against C. glabrata (grade word): Table 9. From the text: (§1) Induction of neutropenia. Although C. albicans remains the dominant disease-causing pathogen of this genus, rates of infections caused by non-albicans Candida (NAC) species are increasing. Among these Candida species, only C. albicans is pathogenic in the normal mouse model. To test vaccine and mAbs against non-albicans Candida spp, we have developed neutropenic murine models of disseminated infection by C. glabrata, C. tropicalis, and C. parapsilosis. Before challenge, BLAB/c mice were made neutropenic by intraperitoneal receipt of a 200 mg/kg dose of cyclophosphamide (CY; Sigma-Aldrich) at day −3. The i.p. injection (150 mg/kg) is repeated every 10 days after infection (i.e., at days 10, 20, 30, and 40 post-infection) in order to maintain low neutrophil counts for the entire experimental procedure. […] To evaluate leukocytopenia in these mice, blood samples were collected from tail veins 3 days after each CY or saline injection (n=10 in each group). Total leukocyte and differential cell counts were determined on a hemocytometer and by Wright-Giemsa staining. Body weights of the mice were also measured and compared for 14 days after the first CY or saline injection (n=10 in each group).
(§2) Fungal challenge dose and assessment ofprotection. Although C. albicans remains the dominant disease-causing pathogen of this genus, rates of infections caused by non-albicans Candida (NAC) species are increasing (18). Among these Candida species, only C. albicans is pathogenic in the normal mouse model (19,20). We have developed neutropenic murine models of disseminated infection by C. glabrata, C. tropicalis, and C. parapsilosis. […] In details, mice of different experimental groups (five mice per group) were intravenously infected with 5×10^6 viable C. parapsilosis ATCC MYA-4646 (A), 1×108 C. glabrata ATCC 2001 cells (B) and 1×107 C. tropicalis ATCC 28775 cells (C) in 0.1 ml DPBS. As controls, immunocompetent mice were challenged with the same dose of each Candida strain tested.
(§3) Passive transfer of MAbs by intraperitoneal (i.p.) route. The preventive effect of peptide-specific mAbs listed in Table 3 and Table 4 in naïve mice was examined by passive transfer experiments. Each mAb was appropriately diluted in DPBS to give a 40,000-100,000 ELISA titer against each corresponding specific peptide coated on the plate. For testing, mice received 0.5 ml of each mAb or 1 ml of two mAbs in combination (0.5 ml of each) intraperitoneally. Table 6 and Table 7 have listed all the peptide-specific mAb combinations that have been tested, as well as the protective efficacy of each mAb cocktail as compared to single mAb treatment. The negative control materials tested in mice were single mAb or DPBS. Control mice received 0.5 ml of the DPBS diluents or single mAb treatment. For each condition, 6- to 8-week-old female BALB/c mice (NCI) were given 0.5 ml of test mAb, or 1 ml two mAb cocktails or control materials intraperitoneally, followed 4 h later by 0.1 ml intravenously of defined lethal dose of yeast cells per milliliter of DPBS. Mice were divided into groups with five mice each and three independent experiments were carried out. In some experiments, mice were given the same dose of mAbs or control materials on every other day post-challenge for two weeks, as compared to the protective efficacy of mAb in combinations. All mice were sacrificed on day 50. For animal groups that were challenged non-albicans candida species, determined optimal challenge doses were applied for each candida strain.
(§4) The preventive effect of each universal peptide-specific mAb was examined by passive transfer experiments. Each mAb was appropriately diluted in DPBS (0.2 μg/μl) to give a 100,000 ELISA titer against each universal peptide coated on the plate. For testing, 5 mice of each tested group received 0.5 ml of each mAb intraperitoneally. The negative control materials tested in mice were mAbs absorbed with C. albicans yeast cells (3153A) and DPBS. […]

The next assay has as its system C. tropicalis ATCC 28775. Put plainly: Passive transfer of mAbs, neutropenic mouse model of disseminated candidiasis by C. tropicalis. In kind it is in vivo. The conditions noted are these: for Protection against C. tropicalis / Protection against C. tropicalis (grade word): Table 6, neutropenic BALB/c mice, mAb i.p. 4 h before 1×10^7 C. tropicalis i.v.; for Protection against Candida spp in mouse model: Against C. tropicalis / Protection against Candida spp in mouse model: Against C. tropicalis (grade word): Table 9.
From the text: as §1, §2, §3, §4

In assay [1] the test system is C. parapsilosis ATCC MYA-4646. Put plainly: Passive transfer of mAbs, neutropenic mouse model of disseminated candidiasis by C. parapsilosis. In kind it is in vivo. The conditions noted are these: Table 6; neutropenic BALB/c mice; mAb i.p. 4 h before 5×10^6 C. parapsilosis i.v.
From the text: as §1, §2
Passive transfer of MAbs by intraperitoneal (i.p.) route. The preventive effect of peptide-specific mAbs listed in Table 3 and Table 4 in naïve mice was examined by passive transfer experiments. Each mAb was appropriately diluted in DPBS to give a 40,000-100,000 ELISA titer against each corresponding specific peptide coated on the plate. For testing, mice received 0.5 ml of each mAb or 1 ml of two mAbs in combination (0.5 ml of each) intraperitoneally. Table 6 and Table 7 have listed all the peptide-specific mAb combinations that have been tested, as well as the protective efficacy of each mAb cocktail as compared to single mAb treatment. […] For animal groups that were challenged non-albicans candida species, determined optimal challenge doses were applied for each candida strain. […]

B1: 1D4H5: IgG1 mAb of hybridoma 1D4H5, specific for GPV-M1; VH SEQ ID NO: 64, VL SEQ ID NO: 66 (antibody, V domains shown)
VH: MYLGLNCVFIVFLLKGVQSEVKLEESGGGLVQPGGSMKLSCVASGFTFSNYWMNWVRQSPEKGLEWVAEIRLKSNNYATHYAESVKGRFTISSDDSKSSVYLQMNNLRAEDTGIYYCSTGNYWGQGTTLTVSS
VL: MDFQMQIISLLLISVTVIVSNGEIVLTQSPTTMAASPGEKITITCSASSTISSNYLHWYQQKPGFSPKLLIYRTSNLASGVPARFSGSGSGTSYSLTIGTMEAEDVATYYCQQGSTISRTFGSGTKLEIK
Regarding B1, in the assay with C. auris (FIG. 14A), the “CFUs in kidneys as compared with control mice” value is given as “reduced CFUs”. Besides, the “CFUs in brains as compared with control mice” value with C. auris (FIG. 14B) is given as “reduced CFUs”. Further, in the assay on C. glabrata ATCC 2001, the “Protection against C. glabrata” value was “(70-90%)”, the “Protection against C. glabrata (grade word)” value is “High”, the “Protection against Candida spp in mouse model: Against C. glabrata” value is “(70-90%)” and the “Protection against Candida spp in mouse model: Against C. glabrata (grade word)” value is recorded as “High”. In the assay with C. tropicalis ATCC 28775, the “Protection against C. tropicalis” value is reported as “(60-80%)”, the “Protection against C. tropicalis (grade word)” value is recorded as “High”, the “Protection against Candida spp in mouse model: Against C. tropicalis” value is on record as “(60-80%)” and the “Protection against Candida spp in mouse model: Against C. tropicalis (grade word)” value is reported as “High”. In assay [1], the “Protection against C. parapsilosis” value was “(70-80%)” and the “Protection against C. parapsilosis (grade word)” value is reported as “High”.

B2: 10E7E2: IgG1 mAb of hybridoma 10E7E2, specific for GPV-P3; VH SEQ ID NO: 72, VL SEQ ID NO: 74 (antibody, V domains shown)
VH: QVQLKQSGPGLVQPSQSLSITCTVSGFSLTSYGVHWVRQSPGKGLEWLGVIWSGGTTDYNAAFISRLSISKDNSKSQVFFKMNSLQANDTAIYYCARGGHRGFAYWGQGTLVTVSA
VL: DIVMTQSHKFMSTSVGDRVSITCKASQDVGTAVAWYQQKPGQSPKLLIYWASTRHTGVPDRFTGSGSGTDFTLTISNVQSEDLADYFCQQYSSYPLTFGAGTKLELK
With B2, in the assay on C. glabrata ATCC 2001, the “Protection against C. glabrata” value is “(60-70%)”, the “Protection against C. glabrata (grade word)” value is “High”, the “Protection against Candida spp in mouse model: Against C. glabrata” value was “(60-70%)” and the “Protection against Candida spp in mouse model: Against C. glabrata (grade word)” value was “High”. In addition, in the assay with C. tropicalis ATCC 28775, the “Protection against C. tropicalis” value is “(60-70%)”, the “Protection against C. tropicalis (grade word)” value is listed as “High”, the “Protection against Candida spp in mouse model: Against C. tropicalis” value is “(60-70%)” and the “Protection against Candida spp in mouse model: Against C. tropicalis (grade word)” value is on record as “High”. Besides, in assay [1], the “Protection against C. parapsilosis” value is “(60-80%)” and the “Protection against C. parapsilosis (grade word)” value is on record as “High”.
